{"source": "patent US20030103946A1", "about": "“Immunotherapeutic methods and molecules” (Imperial College Innovations Limited, priority 2000, published 2003)", "key": {"[1]": {"system": "CTL from HLA-A0201 negative donors", "assay": "Stimulation of peptide-specific allorestricted CTL responses by peptide", "format": "cell-based, human", "from_the_text": "Peptide-specific CTL were isolated from HLA-A0201 negative donors using the method described in WO 97/26328. Three peptide-specific lines were established and found to show specific killing of T2 target cells presenting peptide 1218 but not targets presenting control HLA-A0201− binding peptides (HBV(18-27)).\nPeptide-specific CTL were isolated from HLA-A0201 negative donors using the method described in WO 97/26328. Three peptide-specific lines were established and found to show specific killing of T2 target cells presenting peptide 1218 but not targets presenting control peptides."}, "HLA-A0201": {"biological_target": "T1, HLA-A0201 (Homo sapiens, UniProt P04439, D140Y/D185E/D98H/E176V/E277Q/G131W/G231S/I119V/I121R/I166T/I218V/L300P/L318F/N151K/N90K/P208A/P217A/Q86G/Q94H/R138H/R169H/T345S)", "T1 construct": "ability of peptides to stabilise HLA-A0201 expression in the TAP-deficient T2 cells; endogenous in cells; host or cells: T2 cells (human, TAP-deficient; ATCC CRL 1992)", "assay": "T2 assay: HLA-A0201 binding of peptides (stabilisation of HLA-A0201 expression in TAP-deficient T2 cells)", "procedure": "By “HLA-binding” peptide we mean a peptide which binds to one or more HLA molecules. Typically, a peptide will show HLA binding in a T2 binding assay when present in a concentration range of 10 μM to 1 nM. Whether or not a peptide of human CD45 is an HLA-binding peptide can be determined using methods known in the art. These methods include the T2 HLA stabilisation assay described in FIG. 1, and the method described by Elvin et al (1993) J. Immunol. Methods 158, 161-171.\nPeptide binding was measured using the T2 assay that is based on the ability of peptides to stabilise HLA-A0201 expression in the TAP-deficient T2 cells.\nSixteen peptides of the CD45 molecule were selected and 14 of them we tested in HLA-A0201 binding assays as described in the legend to FIG. 1."}}, "note": "Like-named read-outs stand apart in the source and are kept apart here.", "data": [{"sequence": "FLYDVIAST [huCD45/1218, peptide of human CD45]", "values": [{"measurement": "induction of peptide specific CTL", "setting": "[1]; listed as Peptide 1218", "result": "can induce peptide specific CTL"}, {"measurement": "induction of peptide specific CTL", "setting": "[1]; listed as p1218", "result": "reliably generate peptide-specific, allorestricted CTL"}, {"measurement": "HLA-A0201 binding", "setting": "HLA-A0201", "result": "binds HLA-A0201"}, {"measurement": "HLA-A0201 binding", "setting": "HLA-A0201; listed as Peptide 1218", "result": "one of the best binders"}, {"measurement": "HLA-A0201 binding", "setting": "HLA-A0201; listed as p1218", "result": "one of the best binding peptides"}, {"measurement": "HLA-A0201 binding", "setting": "HLA-A0201; listed as peptide 1218", "result": "one of the best binders"}]}]}
